T1: CjAto5 (Williopsis jadinii, UniProt A0A1E4RU05)
T1 construct: gene CYBJADRAFT_178915; full ORF in p416GPD, expressed in S. cerevisiae IMX1000; cloned from DSM 2361 DNA
T1 sequence (A0A1E4RU05 1-272): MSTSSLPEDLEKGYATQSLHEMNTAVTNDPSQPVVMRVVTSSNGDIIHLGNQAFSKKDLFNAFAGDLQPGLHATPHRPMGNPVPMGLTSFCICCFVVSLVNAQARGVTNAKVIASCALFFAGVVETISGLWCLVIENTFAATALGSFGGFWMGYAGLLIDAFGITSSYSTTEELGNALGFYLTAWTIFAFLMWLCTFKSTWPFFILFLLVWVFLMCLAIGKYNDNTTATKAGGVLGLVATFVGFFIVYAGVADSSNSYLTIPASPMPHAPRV

B1: CjAto2 (Williopsis jadinii) (protein)
chain: MSSINEDLEKISSLGELNYDSHPISQVRTAGPNDEFVMLGRMKVRKSELWSAFGGDLQPGVHAQPQRKFANPVPIGLCGFALTTLVLSMANARAMGIRTPNVAVAPAFFYGGFAQILAGMWEIALENTFGSVVLTSYGCFWLSWAAIEIDWFGIKAAYDDPIELENAIGFFLLGWVIFTFLILLCTMKSTVAFFSMFFLLEITFILLTVASFTRHVGCQRAGGVFGVITGFLAWYNAYAGIATKEISYFVPKPWPLPGASHL
B2: CjAto5 (Williopsis jadinii) (protein)
chain: T1 sequence (A0A1E4RU05 1-272)
B3: CjJen6 (Williopsis jadinii) (protein)
chain: MGFKTYSMSECAQYTRERFTTLLPSREQWEVEKSHMNPFPGLRAMTWRNWQFYIIGMLAWTWDALDFFAMSLNMSNISEDLNRSVKDVSWGITLVLMFRSVGAIFFGYFGDRYGRKWPLIVNLICLIVIQIGTGFVKTYSEFLGVRALFGIFMGSMYGLASATALEGLPTDARSFLSGVFQQGYALGYLLAVIFQRAITDTTEKGWRSLFWFSAGPPVLFILWRAFLPETEEFLQQKLHMSNRKSTFRRDAWNTFKQQWVKMGYLVLLMAGMNFMSHGSQDLYPTMLTKQLGFSSDRSTVTNSVANLGAMAGGMVIGHFSGFIGRRAAIMVCCICGGAMIYPWAFVTGNGINAGVFFLQFFVQGAWGVIPIHLSELSPPEFRAFVVGVSYQLGNLVSSASSTIETTIGERFPLYTETGERREGVYDYAKVMAIFVGAVFAYVFLISFIGPENRHANINFVLSDEEQREMVSQGKIITHKGSDDENLDEEKAVAFHTENVVSEVK
B4: CjSlc5 (Williopsis jadinii) (protein)
chain: MFAETEDGPDYRGVTTFGAAVLIAKGQLGLGVLGIPSTFDVLGFVPGLISLVGLSILVTWTGVVIGQFRLAHPKVYCIDDATEIMFGKAARELVGWGYWLFYTMCYGAALITVSIALNTFSDHGLCTMAFIGIATGATTILTLFTRTMKVLSWLGFIAISCIFFAIWVVAIACLTQSTPAAAESLVDPAKKVIQVVATHSSYKKIAAAVSVQLLSLAGGASFFTIHAEMKDQTKYTKSLLMGQGFIVFNYIAIACIMYAKVGQYIASPALGSAGRTFQIISYGIAFPGLMFSCFFLAHLAAKYALVRILRGTEHLQKNSKTHWITWTAMVAIVIAVGFVIAGAIPFFGDLLGLIGALLGSIFALIAPGFMCLYDMNYKFEGKVPRGYTWIYKNNGSWTKNFWTKLETLLSFFCIASGIYILFTGVYGSIASIADLYSSGAVSGAFSCADNS
B5: CjJen2 (Williopsis jadinii) (protein)
chain: MTSPLPVSPTQDSGLEEPKEDKNIGLTRTLQENEEDSNSSNDEDVPDYSWSSIKRYSRTRFTTLGELHLDSLSDLNPLPALKEMTPRNWNFFFMGFIAWFSASFAFFLTAVSGTVIAESLEVSTKDITWGLSSVLMVRSAGAVIFGLWTDNYSRKWPFIATAAMFCVLQIGTGFCNTYTQFLAGGTYATAAATSLEDAPLKARSTLSGLFFTAYPFGMVFAAIFWRAFQETDHTWKALFWFSAGIPFVLIIWRLLYPETIYFTELLKVKKLIKEEASTSPKISKWAKTKTMFSKYWLLFTYLVLLLASSNFLTHASQDMYPTMLRSQFGWSNDAQTVAIVVTNLGGVIGSLVTGIVMEVLGRRLSILLCCVIGGSFIYPALMLHTTSATLGCGFFMMFGVLGVWGVIPAHLSELSPPDARVLVSGLAYQLGNLASSASSTIETDLAQRWPLEWDAEGNVIRLDYAKTIAVFTGAVFIYTVVIALVGPEKYHRDLNSPLLKKYFAKLRENDVEKGSSSE
B6: CjJen3 (Williopsis jadinii) (protein)
chain: MAMSDVKRYILSRVPTLFCIPGTSFQALNPVPALSALSRNDWNYFLMGYAAWTIDAFDFFCVSACAPALAQALDRSVTDITWGITLVLMTREYFAHIDGQLTDIFEIGSLGAVIFGSLSDTYGRKPTYLAVMCLFCIIEVGTGFVQNYTQFLVVRAMFGICMGGCYTTASATALESQPVGSRSVLGGIFLPGYNLGYILAVAFYRAFEFTEHGWRALFWFSAAPPAILFVWRMFFPEHPHFTALKRVQREKALSEGKHHQASSPWAQFFADLKSAMRHHWLMFVYLVIYMSLMNFSSHASQDLMPTMLQNQLGFEANDRTIIMVVINIGAIFGGLCVGTISEYTGRRLAVFVCTICSSALIYPAFYTTDMAGLICGGFFMQFFVMGCWGVTSVYIMELSPNAFRALFGGLAYQLGNLASSASSTIEAEISEAFPLSDIGPEVYDYARSMALFMVGVNVCLVICIVSGPEKFHKDFSIQGEGQEQLQRKSCNDVDEELAIEYTEDLKHTDRVSWTEKHSIHHNEKT
B7: CjJen4 (Williopsis jadinii) (protein)
chain: MTAGRYIATRIPSLFTLPGTPVKSLNPAPAMRALSRSDWNYFAMGYCAWVIDAFDFFCVSACAPALAKAFDRSIHDITWGITLVLMTRSLGAVIFGSLSDTYGRKPTYLAVMALFSIIEIGTGFVQNYTQFLIVRLLFGICMGGCYTTASATALESQPTTSRSVLGGIFLPGYNLGYILAVAFYRAFEFSTHGWRALFWFSAAPPAILFMWRLMFPEHPHFVEHKRVQREKALAEGNHAQAASPWRQFYSDLKKALSNHWLMFVYLVFYLSLMNFSSHASQDLMPTMLQNQLFFSANQRTAIMIVVNLGAMVGGLCVGTLSEFTGRRLAIFSCAVGSSALIYPAFFSTSIGGLMAGGFFMQFFVMGCWGVCSVYIMELSPPAFRALFGGLAYQLGNLASSASSTIESEISSSFPLPDLGPSVYDYAKSMALFMVGVNVCLIVCIVCGPEYFHRDFSAHAEENYSDQKKATIEQFDTASDEERAMGSLKMNTEVEEFDMDKASVQHRESARD

How the values were obtained:
[1] = biological target: T1, CjAto5; test: […]-succinate uptake, initial rates in S. cerevisiae IMX1000; format: cell-based; conditions: pH 5.0, 30 °C; labelled compound
[2] = biological target: T2, CjAto2 (Williopsis jadinii, UniProt A0A1E4S9G0); test: as above; format: cell-based; conditions: pH 5.0, 30 °C; labelled compound
T2 construct: gene CYBJADRAFT_7539; full ORF in p416GPD, expressed in S. cerevisiae IMX1000; cloned from DSM 2361 DNA

[3] = biological target: T3, CjSlc13-2 (Williopsis jadinii, UniProt A0A1E4S914); conditions: pH 6.0, 30 °C; labelled compound
T3 construct: gene CYBJADRAFT_165372

[4] = biological target: T4, CjSlc16 (Williopsis jadinii, UniProt A0A1E4RTM6); conditions: pH 6.0, 30 °C; labelled compound
T4 construct: gene CYBJADRAFT_170140

[5] = biological target: T5, CjSlc13-1 (Williopsis jadinii, UniProt A0A1E4RYH4); conditions: pH 6.0, 30 °C; labelled compound
T5 construct: gene CYBJADRAFT_194887

[6] = substrate: C[C@H](O)C(=O)O; test: cells, lysate or membranes; conditions: pH 5.0, 30 °C, labelled compound, pH 5.0
[7] = substrate: O=C(O)CC(O)(CC(=O)O)C(=O)O; test: cells, lysate or membranes; conditions: pH 5.5, 30 °C, labelled compound, pH 5.5
[8] = substrate: CC(=O)O; test: cells, lysate or membranes; conditions: pH 6.0, 30 °C, labelled compound, pH 6.0

T4 sequence (A0A1E4RTM6 1-470): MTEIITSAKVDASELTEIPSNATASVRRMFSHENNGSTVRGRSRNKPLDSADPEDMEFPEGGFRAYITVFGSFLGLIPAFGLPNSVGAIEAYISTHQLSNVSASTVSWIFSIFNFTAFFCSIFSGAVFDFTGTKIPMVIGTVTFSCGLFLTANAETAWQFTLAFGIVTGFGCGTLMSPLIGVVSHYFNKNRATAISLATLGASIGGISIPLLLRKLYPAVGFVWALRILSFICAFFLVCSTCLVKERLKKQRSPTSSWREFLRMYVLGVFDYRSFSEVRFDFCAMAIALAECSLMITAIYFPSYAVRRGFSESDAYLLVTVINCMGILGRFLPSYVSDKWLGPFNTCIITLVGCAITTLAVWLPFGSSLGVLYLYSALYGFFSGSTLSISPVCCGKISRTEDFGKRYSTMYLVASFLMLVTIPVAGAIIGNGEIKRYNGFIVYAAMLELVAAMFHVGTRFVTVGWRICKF
T3 sequence (A0A1E4S914 1-821): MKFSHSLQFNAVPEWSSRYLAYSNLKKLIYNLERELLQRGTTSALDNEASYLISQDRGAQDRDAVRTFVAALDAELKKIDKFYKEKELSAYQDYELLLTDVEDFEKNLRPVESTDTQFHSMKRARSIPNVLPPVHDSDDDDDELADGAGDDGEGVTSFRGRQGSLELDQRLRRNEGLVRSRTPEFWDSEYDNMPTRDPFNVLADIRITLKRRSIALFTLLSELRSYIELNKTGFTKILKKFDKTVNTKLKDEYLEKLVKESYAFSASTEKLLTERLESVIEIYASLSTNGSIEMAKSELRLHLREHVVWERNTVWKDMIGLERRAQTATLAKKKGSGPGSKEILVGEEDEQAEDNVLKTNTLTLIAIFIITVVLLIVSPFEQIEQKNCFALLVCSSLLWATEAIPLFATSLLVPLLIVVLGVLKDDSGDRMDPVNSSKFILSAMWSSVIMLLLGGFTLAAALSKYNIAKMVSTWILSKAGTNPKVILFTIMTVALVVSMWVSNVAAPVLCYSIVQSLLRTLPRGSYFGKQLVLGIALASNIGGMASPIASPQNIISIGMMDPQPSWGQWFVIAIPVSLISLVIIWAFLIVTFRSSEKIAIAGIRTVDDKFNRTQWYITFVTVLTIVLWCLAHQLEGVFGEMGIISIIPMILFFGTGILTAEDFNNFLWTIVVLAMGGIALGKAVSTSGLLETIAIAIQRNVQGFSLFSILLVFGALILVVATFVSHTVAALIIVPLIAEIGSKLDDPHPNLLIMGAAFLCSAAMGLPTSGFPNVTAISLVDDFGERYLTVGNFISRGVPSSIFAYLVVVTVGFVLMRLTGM
T5 sequence (A0A1E4RYH4 1-843): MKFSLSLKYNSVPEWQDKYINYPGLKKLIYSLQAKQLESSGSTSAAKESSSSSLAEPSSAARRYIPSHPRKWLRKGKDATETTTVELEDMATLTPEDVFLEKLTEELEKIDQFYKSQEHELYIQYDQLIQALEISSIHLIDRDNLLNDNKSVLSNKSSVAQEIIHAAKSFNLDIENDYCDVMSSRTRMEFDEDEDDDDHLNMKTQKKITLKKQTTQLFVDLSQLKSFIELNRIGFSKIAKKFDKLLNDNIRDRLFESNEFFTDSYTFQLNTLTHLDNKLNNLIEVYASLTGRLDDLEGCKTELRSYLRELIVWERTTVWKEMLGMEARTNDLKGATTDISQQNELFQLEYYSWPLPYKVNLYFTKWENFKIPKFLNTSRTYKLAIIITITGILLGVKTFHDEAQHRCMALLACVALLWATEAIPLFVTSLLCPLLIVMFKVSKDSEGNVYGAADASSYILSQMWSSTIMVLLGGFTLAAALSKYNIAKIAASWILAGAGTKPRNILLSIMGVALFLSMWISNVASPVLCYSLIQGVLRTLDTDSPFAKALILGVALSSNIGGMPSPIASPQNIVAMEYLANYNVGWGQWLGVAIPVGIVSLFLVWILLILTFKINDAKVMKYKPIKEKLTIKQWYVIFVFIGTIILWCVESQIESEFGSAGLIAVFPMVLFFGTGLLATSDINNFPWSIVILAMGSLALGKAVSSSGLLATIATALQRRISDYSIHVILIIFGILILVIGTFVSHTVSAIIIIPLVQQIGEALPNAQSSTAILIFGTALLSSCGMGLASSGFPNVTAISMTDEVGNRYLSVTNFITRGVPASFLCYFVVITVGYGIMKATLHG

Molecule | Km [7] [mM] | Km [8] [mM] | further results
O=C(O)CCC(=O)O [succinic acid] | – | – | Km [1]: 0.45 ± 0.09 mM; Km [2]: 3.38 ± 0.82 mM
CC(=O)O [acetic acid] | – | – | uptake [3]: All transformants presented activity for acetate uptake (Figure 3C); uptake [4]: All transformants presented activity for acetate uptake (Figure 3C); uptake [5]: All transformants presented activity for acetate uptake (Figure 3C)
B1 | – | – | Km [6]: 4.33 ± 0.70 mM
B2 | 22.21 ± 7.14 | – | –
B3 | 21.44 ± 7.17 | – | –
B4 | 17.24 ± 4.73 | – | –
B5 | – | 1.26 ± 0.35 | –
B6 | – | 3.21 ± 1.07 | –
B7 | – | 1.62 ± 0.43 | –

Reference: PMC8779868, “Uncovering Novel Plasma Membrane Carboxylate Transporters in the Yeast Cyberlindnera jadinii” (Journal of Fungi, 2022)
